± gives the uncertainty stated by the source.
B1: Peripheral plasma membrane protein CASK, residues 488 to 569; numbered along this chain, O14936 (parent)
chain: VRLVQFQKNTDEPMGITLKMNELNHCIVARIMHGGMIHRQGTLHVGDEIREINGISVANQTVEQLQKMLREMRGSITFKIVP

Variants of: B1
Test: abundance fitness (aPCA) (normalised: wild type 0, dead -1); higher = more abundant; growth selection in yeast, the domain comes from the species named
Details: Homo sapiens

Variant | abundance fitness
VRLVQFQKNTDEPMGITLKMNELNHCIVARIMHGGMIHRVGTLHVGDEIREINGISVANQTVEQLQKMLREMRGSITFKIVP [Q40V] | -0.065 ± 0.021
VRLVQFQKNTDEPMGITLKMNELNHCIVARIMHGGMIHRNGTLHVGDEIREINGISVANQTVEQLQKMLREMRGSITFKIVP [Q40N] | -0.007 ± 0.041
VRLVQFQKNTDEPMGITLKMNELNHCIVARIMHGGMIHRQGTLHVGDEIREINGISVANQTVEQLQKMLREMRGSITFKEVP [I80E] | -0.883 ± 0.21
VRLVQFQKNTDEPMGITLKMNELNHCIVARIMHGGMIHRQGTLHVGDEIREINGISVANQTVEQLQKMLREMRGSITFKSVP [I80S] | -0.424 ± 0.038
VRLVQFQKNTDEPMGITLKMNELNHCIVARIMHGGMIHRQGTLHVGDEIREINGISVANQTVEQLQKMLREMRKSITFKIVP [G74K] | -0.399 ± 0.042
VRLVQFQKNTDEPMGITLKMNELNHCIVARIMHGGMIHRQGTLHVGDEIREINGISVANQTVEQLQKMLREMRPSITFKIVP [G74P] | -0.524 ± 0.046
VRLVQFQKNTDEPTGITLKMNELNHCIVARIMHGGMIHRQGTLHVGDEIREINGISVANQTVEQLQKMLREMRGSITFKIVP [M14T] | -0.165 ± 0.042
VRLVQFQKNTDEPVGITLKMNELNHCIVARIMHGGMIHRQGTLHVGDEIREINGISVANQTVEQLQKMLREMRGSITFKIVP [M14V] | -0.017 ± 0.032
VRLVQFQKNTDEPYGITLKMNELNHCIVARIMHGGMIHRQGTLHVGDEIREINGISVANQTVEQLQKMLREMRGSITFKIVP [M14Y] | -0.206 ± 0.049
VRLVQFQKNTDEPMGITLKMNECNHCIVARIMHGGMIHRQGTLHVGDEIREINGISVANQTVEQLQKMLREMRGSITFKIVP [L23C] | 0.013 ± 0.035
VRLVQFQKNTDEPMGITLKMNELNHCIVARIMHGGMIHRQGTLHVHDEIREINGISVANQTVEQLQKMLREMRGSITFKIVP [G46H] | -0.471 ± 0.13
VRLVQFQKNTDEPMCITLKMNELNHCIVARIMHGGMIHRQGTLHVGDEIREINGISVANQTVEQLQKMLREMRGSITFKIVP [G15C] | -0.556 ± 0.045
VRFVQFQKNTDEPMGITLKMNELNHCIVARIMHGGMIHRQGTLHVGDEIREINGISVANQTVEQLQKMLREMRGSITFKIVP [L3F] | 0.007 ± 0.05
VRLVQFQKNTDIPMGITLKMNELNHCIVARIMHGGMIHRQGTLHVGDEIREINGISVANQTVEQLQKMLREMRGSITFKIVP [E12I] | -0.09 ± 0.094
VRLVQFQKNTDEPMGITLKMNELNHCIVARIMHGGMIHRQGTLHVGDEIREINGISVANQTVEQLQKMLREMRGSITFKIAP [V81A] | -0.054 ± 0.034
VRLVQFQKNTDEPMGITLKMNELNHCIVARIMHGGMIHRQGTAHVGDEIREINGISVANQTVEQLQKMLREMRGSITFKIVP [L43A] | -0.722 ± 0.04
VRLVQFQKNTDEPMGITLKMNMLNHCIVARIMHGGMIHRQGTLHVGDEIREINGISVANQTVEQLQKMLREMRGSITFKIVP [E22M] | -0.078 ± 0.041

Variant | abundance fitness
VRLVQFQKNTDEPMGITLKMNILNHCIVARIMHGGMIHRQGTLHVGDEIREINGISVANQTVEQLQKMLREMRGSITFKIVP [E22I] | -0.185 ± 0.067
VRLVQFQKNTDEPMGITLKMNELNHCIVARIMHGGMIHRQGTLHVGNEIREINGISVANQTVEQLQKMLREMRGSITFKIVP [D47N] | -0.497 ± 0.1
VRLVQFQKNTDEPMGITLKMNELNHCIVARIMHGGMIHRQGTLHVGYEIREINGISVANQTVEQLQKMLREMRGSITFKIVP [D47Y] | -0.832 ± 0.22
VRLVQFQKNTDEPMGITLKMNELNHCIVARIMHGGMIHRQGTLHVGDEIREINGISVANQTVEQLQIMLREMRGSITFKIVP [K67I] | -0.06 ± 0.051
VRLVQFQKNTDEPMGITLKMNELNHCWVARIMHGGMIHRQGTLHVGDEIREINGISVANQTVEQLQKMLREMRGSITFKIVP [I27W] | -0.187 ± 0.027
VRLVQFQKNTDEPMGITLKMNELNHCIVARIMHGGMIHRQGTLHVGDEIWEINGISVANQTVEQLQKMLREMRGSITFKIVP [R50W] | -0.118 ± 0.036
VRLVQFQKNTDEPMGITLKMNELNHCIVARIMHGGMIHRQGTLHVGDEIYEINGISVANQTVEQLQKMLREMRGSITFKIVP [R50Y] | -0.174 ± 0.09
VRLVQFQKNTDEPMGITLKMNELNHCIVARIMHGGMIHRQGTLHVGDLIREINGISVANQTVEQLQKMLREMRGSITFKIVP [E48L] | -0.161 ± 0.037
VRLVQFAKNTDEPMGITLKMNELNHCIVARIMHGGMIHRQGTLHVGDEIREINGISVANQTVEQLQKMLREMRGSITFKIVP [Q7A] | -0.025 ± 0.024
VRLVQFHKNTDEPMGITLKMNELNHCIVARIMHGGMIHRQGTLHVGDEIREINGISVANQTVEQLQKMLREMRGSITFKIVP [Q7H] | 0.009 ± 0.043
TRLVQFQKNTDEPMGITLKMNELNHCIVARIMHGGMIHRQGTLHVGDEIREINGISVANQTVEQLQKMLREMRGSITFKIVP [V1T] | 0.015 ± 0.043
VRLVQFQKNTDEPMGITLKMNELNHCIVARIMHGGQIHRQGTLHVGDEIREINGISVANQTVEQLQKMLREMRGSITFKIVP [M36Q] | -0.014 ± 0.044
VRLVQFQKNTDEPMGITLKMNELNHCIVARIMHGGWIHRQGTLHVGDEIREINGISVANQTVEQLQKMLREMRGSITFKIVP [M36W] | 0.068 ± 0.035
VRLVQFQKNTDEPMGITLKSNELNHCIVARIMHGGMIHRQGTLHVGDEIREINGISVANQTVEQLQKMLREMRGSITFKIVP [M20S] | -0.154 ± 0.033
VRLVQFQKNTDEPMGITLKMNELNHCIVARIMHGGMIHRQGTLHVGDEIREINGISVANVTVEQLQKMLREMRGSITFKIVP [Q60V] | -0.118 ± 0.025
VRLVQFQKNTDEPMGITLKMNELNHCIVARIMHGGMIHRQGTLHVGDEIREINGISVANQTVEQLQKMLREMRGSITFFIVP [K79F] | -0.457 ± 0.056

Reference: the Human Domainome abundance scans (Beltran et al. 2025)
